Data as given in publication PMC10119399, “Insights to improve the activity of glycosyl phosphorylases from Ruminococcus albus 8 with cello-oligosaccharides” (Frontiers in Chemistry, 2023).
Blank lines part the entries; values can stand above or below the molecule they belong to.

Columns and labels:
[1] = tested on: T1, RalCDP-CBM37; experiment: glucose release, glucose oxidase-peroxidase, Michaelis-Menten fit; assay type: biochemical, Hominimerdicola alba; conditions: phosphorolysis direction; Pi as co-substrate; 50 mM sodium acetate pH 6.0, 45°C; read-out: K M (mM) (mg/mL)
T1 construct: CBM37 of R. albus 8 Cel5G fused by glycine linker (Gly X9) to C-terminus of full-length RalCDP in one polypeptide; His-tag kept; E. coli BL21 (DE3); homodimer

[2] = tested on: T1, RalCDP-CBM37; experiment: arsenolysis, glucose release, glucose oxidase-peroxidase, Michaelis-Menten fit; assay type: biochemical, Hominimerdicola alba; conditions: phosphorolysis direction measured as arsenolysis; arsenate as co-substrate; 50 mM sodium acetate pH 6.0, 45°C; read-out: K M (mM) (mg/mL)
[3] = molecular target: RalCDP-CBM37, RalCDP fused at its C-terminus to CBM37 of R. albus 8 Cel5G by a glycine linker (Ruminococcus albus 8); experiment: SEC; Superdex 200 10/300 in Buffer G (50 mM HEPES-NaOH pH 8.0, 100 mM NaCl, 0.1 mM EDTA); native mass from a calibration curve of standard proteins
[4] = molecular target: Ral∆N63CDP-CBM37, Ral∆N63CDP fused at its C-terminus to CBM37 of R. albus 8 Cel5G by a glycine linker (Ruminococcus albus 8); experiment: as above
[5] = molecular target: Ruminococcus albus 8 cellobiose phosphorylase (RalCBP) (Ruminococcus albus 8); experiment: as above
[6] = molecular target: Ruminococcus albus 8 cellodextrin phosphorylase (RalCDP) (Ruminococcus albus 8); experiment: as above
[7] = substrate: O=P(O)(O)O[C@H]1O[C@H](CO)[C@@H](O)[C@H](O)[C@H]1O; experiment: Pi release, Malachite Green, Michaelis-Menten fit; assay type: biochemical, Hominimerdicola alba; conditions: synthesis direction (donor), co-substrate glucose, 100 mM sodium acetate pH 6.0, 45°C
From the text: Pi release, Malachite Green, Michaelis-Menten fit on RalCBP

[8] = substrate: O=P(O)(O)O; experiment: purified protein; conditions: phosphorolysis direction, co-substrate cellobiose, 50 mM sodium acetate pH 6.0, 45°C

Molecule: OC[C@H]1O[C@@H](O[C@H]2[C@H](O)[C@@H](O)C(O)O[C@@H]2CO)[C@H](O)[C@@H](O)[C@@H]1O (some centres unmarked) [Cellobiose]
Km [1]: 11 ± 2 mM

Molecule: OC[C@H]1O[C@@H](O[C@H]2[C@H](O)[C@@H](O)[C@H](O[C@H]3[C@H](O)[C@@H](O)[C@H](O[C@H]4[C@H](O)[C@@H](O)[C@H](O[C@H]5[C@H](O)[C@@H](O)C(O)O[C@@H]5CO)O[C@@H]4CO)O[C@@H]3CO)O[C@@H]2CO)[C@H](O)[C@@H](O)[C@@H]1O (some centres unmarked) [Cellopentaose]
Km [2]: 0.14 ± 0.03 mM

Molecule: OC[C@H]1O[C@@H](O[C@H]2[C@H](O)[C@@H](O)[C@H](O[C@H]3[C@H](O)[C@@H](O)[C@H](O[C@H]4[C@H](O)[C@@H](O)C(O)O[C@@H]4CO)O[C@@H]3CO)O[C@@H]2CO)[C@H](O)[C@@H](O)[C@@H]1O (some centres unmarked) [Cellotetraose]
Km [2]: 0.24 ± 0.06 mM

B1: RalCBP (Hominimerdicola alba 8) (protein)
chain: MKFGFFDDANKEYVITEPRTPYPWINYLGSQAFFSLISNTAGGYSFYKDARLRRITRYRYNNVPIDMGGRYFYINDNGTVWNPGWSPVKTELDAYTCRHGMGYTIIKGEKNGLEAEVTFFVPNNYNGEVQKVVLTNKSGAEKTFKLFSFAEWCLWDAQDDCTNFQRNFSTGRVEVDGSVIYHKTEYRDRRDHYAFYSVNDSIDGYDTDRDSFIGLYNGFNDPQAVMAGKANDSFADGWSPIASHYKEIKLGAGESKTLIFILGYVEMPVDQKFEADGKTINKVKAKAMMEQFDTPEKVDAGLAELKASWDKLLGILNVDTPDDKVDRMVNIWNQYQCMVTFNLSRSASYFESGIGRGMGFRDSNQDILGFVHQIPDRARERIIDIASTQLPDGGCYHQYQPLTKKGNSDIGGDFSDDPLWMILSVSAYIKETGDWGILDEMVPYDNDESKAQPMLDHLKVSFYHIVNNLGPHGLPLAMRADWNDCINLSCYSDTPGESFQTYTNPKFAAEGGYSKVAESVMVATLFTYTGPNYVAILKHLGKDDEAAAAQAEIDKMKKNVMASAWDGDWFLRAYDSEGKKMGSKECEEGQIFIEPQGFAIMSEIGKEQGADKKTLAAIDERLNTKFGLVLNNPAFTKYYIQYGEISTYPGGYKENAGIFTHNNAWIICAAAYAGQGDQAFKYYSEIAPAFTEETSDIHKTEPYVYGQMIGGKDAGSDIGRPGKNFGQGKNSWLTGTAAWNMVAISQYILGVQPDFDGLKIDPSIPAAWDGFNITRKFRGNTYNIAVKNPDHVCKGIKSVTVDGKKIDGIVMPVFEAGSVHEVEVVMG
notes: full length, His6-tag kept (methods: N-terminus; results: C-terminal), codon-optimized, E. coli BL21 (DE3); homodimer 180 kDa
Km [7]: 2.0 ± 0.2 mM | kcat [7]: 178 ± 2 s⁻¹ | kcat/Km [7]: 89000 M⁻¹ s⁻¹ | Km [8]: 0.58 ± 0.02 mM | kcat [8]: 284 s⁻¹ | kcat/Km [8]: 490000 M⁻¹ s⁻¹

Second part, the molecule after the results:

Km [2]: 2.2 ± 0.3 mM
Molecule: OC[C@H]1O[C@@H](O[C@H]2[C@H](O)[C@@H](O)[C@H](O[C@H]3[C@H](O)[C@@H](O)C(O)O[C@@H]3CO)O[C@@H]2CO)[C@H](O)[C@@H](O)[C@@H]1O (some centres unmarked) [Cellotriose]

stoichiometry N [3]: 2
Molecule: RalCDP-CBM37, RalCDP fused at its C-terminus to CBM37 of R. albus 8 Cel5G by a glycine linker (enzyme)

stoichiometry N [4]: 5
Molecule: Ral∆N63CDP-CBM37, Ral∆N63CDP fused at its C-terminus to CBM37 of R. albus 8 Cel5G by a glycine linker (enzyme)

stoichiometry N [5]: 2
Molecule: Ruminococcus albus 8 cellobiose phosphorylase (RalCBP) (enzyme)

stoichiometry N [6]: 2
Molecule: Ruminococcus albus 8 cellodextrin phosphorylase (RalCDP) (enzyme)
